First the molecules themselves.
B1: NbCoV_43 (VHH)
VHH: QVQLQESGGGLVQPGGSLRLSCVASGSIGSINHMAWFRKPPGKERELVASITLAPDEIAYYADSVKGRFAISKGNAQPTLYLQMNSLKPEDTAVYYCHFRQIRANAHDVYWGQGTQVTVSS
notes: also called Nb 43
B2: NbCoV_104 (VHH)
VHH: QVQLQESGGGLVQPGGSLRLSCAASGSIFRVMGWYRQAPGKEHDLVATITRSGDTNYADSVKGRFTISRDNTKNTVYLQMNNLKPEDTDVYYCYARNFVGHNPDVWGQGTQVTVSS
notes: also called Nb 104
B3: NbCoV_39 (VHH)
VHH: QVQLQESGGGLVQAGGSLRLSCAASGRTFSSTAMAWFRQAPGQEREFVATISWSGDNTKYADSVKGRFTISRDNAKNTVYLQMNSLKPEDTAVYYCAADPGNFGVPIEYFMFDYWGQGTQVTVSS
notes: also called Nb 39; 39A

In this experiment the target is Spike protein of wild-type virus B. 1.499, hCoV-19/Argentina/PAIS-C0102/2020 (Andina Strain) (SARS-CoV-2). Description: cell-based or functional assay.
Regarding B1, the “wildtype VN assay on Vero cells, neutralizing activity” value (“wildtype VN assay on Vero cells” for short) is 0.1 µM. For the molecule B2, the “wildtype VN assay on Vero cells” value was found to be 0.3 µM. Regarding B3, the “wildtype VN assay on Vero cells” value turned out to be 0.4 µM.

The values above are taken from US20240254202A1 (CONSEJO NACIONAL DE INVESTIGACIONES CIENT FICAS Y T CNICAS …, published 2024).
